{"source": "patent US5442053A", "about": "“Salts and mixtures of hyaluronic acid with pharmaceutically active substances, pharmaceutical compositions containing the same and methods for administration of such compositions” (Fidia, S.p.A., priority 1983, dated 1995)", "test_system": "corneal epithelium", "assay": "Healing activity of EGF vehicled in hyaluronic acid, epithelial lesion of rabbit cornea", "type": "in vivo, rabbit (male albino New Zealand)", "settings": "for healing of lesions in the corneal epithelium: single eye", "protocol": "The experiments were carried out on male albino New Zealand rabbits (average weight 1.8 kg). The animals, after a period of adaptation of about 5 days, underwent epithelial lesion of the cornea in suitable conditions of local anesthetic with Novesina (4%). The lesion consisted of a monocular scarification of a circular area in the optic zone effected by a concave glass cylinder (.phi. 3mm) with a sharp edge.\nThe animals were subdivided into groups, each group consisting of 5 animals, and subjected to pharmacological treatment by conjunctival instillation as follows:\nTreatment was effected on the right eye (RE) by conjunctival instillation of 2 drops every 8 hours for 3 total administrations.\nHealing of the corneal epithelium was evaluated by observation of the eye and photographic documentation with a slit lamp at various intervals after scarification: 0, 8 hours, 16 hours, 24 hours, 32 hours, 40 hours, and 48 hours.", "data": [{"molecule": "Epidermal growth factor (protein, UniProt P01133 23-1207, looked up, Pro-epidermal growth factor, EGF (Epidermal growth factor), dissolved in saline (0.5 mg/5 ml)) Pro-epidermal growth factor: PQHWSCPEGTLAGNGNSTCVGPAPFLIFSHGNSIFRIDTEGTNYEQLVVDAGVSVIMDFHYNEKRIYWVDLERQLLQRVFLNGSRQERVCNIEKNVSGMAINWINEEVIWSNQQEGIITVTDMKGNNSHILLSALKYPANVAVDPVERFIFWSSEVAGSLYRADLDGVGVKALLETSEKITAVSLDVLDKRLFWIQYNREGSNSLICSCDYDGGSVHISKHPTQHNLFAMSLFGDRIFYSTWKMKTIWIANKHTGKDMVRINLHSSFVPLGELKVVHPLAQPKAEDDTWEPEQKLCKLRKGNCSSTVCGQDLQSHLCMCAEGYALSRDRKYCEDVNECAFWNHGCTLGCKNTPGSYYCTCPVGFVLLPDGKRCHQLVSCPRNVSECSHDCVLTSEGPLCFCPEGSVLERDGKTCSGCSSPDNGGCSQLCVPLSPVSWECDCFPGYDLQLDEKSCAASGPQPFLLFANSQDIRHMHFDGTDYGTLLSQQMGMVYALDHDPVENKIYFAHTALKWIERANMDGSQRERLIEEGVDVPEGLAVDWIGRRFYWTDRGKSLIGRSDLNGKRSKIITKENISQPRGIAVHPMAKRLFWTDTGINPRIESSSLQGLGRLVIASSDLIWPSGITIDFLTDKLYWCDAKQSVIEMANLDGSKRRRLTQNDVGHPFAVAVFEDYVWFSDWAMPSVMRVNKRTGKDRVRLQGSMLKPSSLVVVHPLAKPGADPCLYQNGGCEHICKKRLGTAWCSCREGFMKASDGKTCLALDGHQLLAGGEVDLKNQVTPLDILSKTRVSEDNITESQHMLVAEIMVSDQDDCAPVGCSMYARCISEGEDATCQCLKGFAGDGKLCSDIDECEMGVPVCPPASSKCINTEGGYVCRCSEGYQGDGIHCLDIDECQLGEHSCGENASCTNTEGGYTCMCAGRLSEPGLICPDSTPPPHLREDDHHYSVRNSDSECPLSHDGYCLHDGVCMYIEALDKYACNCVVGYIGERCQYRDLKWWELRHAGHGQQQKVIVVAVCVVVLVMLLLLSLWGAHYYRTQKLLSKNPKNPYEESSRDVRSRRPADTEDGMSSCPQPWFVVIKEHQDLKNGGQPVAGEDGQAADGSMQPTSWRQEPQLCGMGTEQGCWIPVSSDKGSCPQVMERSFHMPSYGTQTLEGGVEKPHSLLSANPLWQQRALDPPHQMELTQ", "values": [{"measurement": "healing of lesions in the corneal epithelium", "setting": "0 hours after scarification", "value": "+"}, {"measurement": "healing of lesions in the corneal epithelium", "setting": "8 hours after scarification", "value": "+"}, {"measurement": "healing of lesions in the corneal epithelium", "setting": "16 hours after scarification", "value": "+"}, {"measurement": "animals healed", "setting": "24 hours after scarification", "value": "4/5"}, {"measurement": "healing of lesions in the corneal epithelium", "setting": "24 hours after scarification", "value": "- and +"}, {"measurement": "healing of lesions in the corneal epithelium", "setting": "48 hours after scarification", "value": "-"}]}]}
